Data reported in article PMC6586323, “Comparative analysis of the metal-dependent structural and functional properties of mouse and human SMP30” (PLoS ONE, 2019).

Legend:
Assay in all cases: purified protein
purified protein [1] = substrate: CCOP(=O)(OCC)SCCSCC; assay type: biochemical, Mus musculus; conditions: 1 mM Ca2+, 50 mM Tris-HCl pH 8.0, 0.1 mM DTNB, substrate range 1-10 mM
purified protein [2] = substrate: O=C1CCCS1; assay type: biochemical, Mus musculus; conditions: 1 mM Ca2+, 50 mM Tris-HCl pH 7.0, 0.1 mM DTNB, substrate range 1-10 mM
purified protein [3] = substrate: CCOP(=O)(OCC)SCCSCC; assay type: biochemical, Homo sapiens; conditions: 1 mM Ca2+, 50 mM Tris-HCl pH 8.0, 0.1 mM DTNB, substrate range 1-10 mM
purified protein [4] = substrate: O=C1CCCS1; assay type: biochemical, Homo sapiens; conditions: 1 mM Ca2+, 50 mM Tris-HCl pH 7.0, 0.1 mM DTNB, substrate range 1-10 mM

B1: MoSMP30 (Mus musculus) (protein)
chain: MSSIKVECVLRENYRCGESPVWEEASQSLLFVDIPSKIICRWDTVSNQVQRVAVDAPVSSVALRQLGGYVATIGTKFCALNWENQSVFVLAMVDEDKKNNRFNDGKVDPAGRYFAGTMAEETAPAVLERHQGSLYSLFPDHSVKKYFDQVDISNGLDWSLDHKIFYYIDSLSYTVDAFDYDLQTGQISNRRIVYKMEKDEQIPDGMCIDAEGKLWVACYNGGRVIRLDPETGKRLQTVKLPVDKTTSCCFGGKDYSEMYVTCARDGLNAEGLLRQPDAGNIFKITGLGVKGIAPYSYAG
B1 was tested, and the Km (purified protein [1]) was 3.57 ± 1.5 mM, the Vmax (purified protein [1]) was 0.0085 µM/min and the kcat (purified protein [1]) was 0.00193 s⁻¹. The kcat/Km (purified protein [1]) was 0.533 M⁻¹ s⁻¹, the Km (purified protein [2]) was 39.49 ± 7.9 mM and the Vmax (purified protein [2]) was 0.286 µM/min. The kcat (purified protein [2]) was 0.0647 s⁻¹ and the kcat/Km (purified protein [2]) was 1.63 M⁻¹ s⁻¹.

B2: HuSMP30 (Homo sapiens) (protein)
chain: MSSIKIECVLPENCRCGESPVWEEVSNSLLFVDIPAKKVCRWDSFTKQVQRVTMDAPVSSVALRQSGGYVATIGTKFCALNWKEQSAVVLATVDNDKKNNRFNDGKVDPAGRYFAGTMAEETAPAVLERHQGALYSLFPDHHVKKYFDQVDISNGLDWSLDHKIFYYIDSLSYSVDAFDYDLQTGQISNRRSVYKLEKEEQIPDGMCIDAEGKLWVACYNGGRVIRLDPVTGKRLQTVKLPVDKTTSCCFGGKNYSEMYVTCARDGMDPEGLLRQPEAGGIFKITGLGVKGIAPYSYAG
In the case of B2, the Km (purified protein [3]) is reported as 17.45 ± 5 mM, the Vmax (purified protein [3]) is reported as 0.0357 µM/min and the kcat (purified protein [3]) is reported as 0.00808 s⁻¹. For the same protein, the kcat/Km (purified protein [3]) was 0.467 M⁻¹ s⁻¹, the Km (purified protein [4]) was 19.8 ± 2.9 mM and the Vmax (purified protein [4]) was 0.453 µM/min. It also gave a kcat (purified protein [4]) of 0.102 s⁻¹ and a kcat/Km (purified protein [4]) of 5.17 M⁻¹ s⁻¹.
